# Source: the DeepSol protein solubility set
# Assay: soluble on expression in E. coli; label from the status in PepcDB or PDB records
row,Sequence,soluble on expression in E. coli
1,MGKLFGTFGVRGIANEKITPEFAMKIGMAFGTLLKREGRKKPLVVVGRDTRVSGEMLKEALISGLLSVGCDVIDVGIAPTPAVQWATKHFNADGGAVITASHNPPEYNGIKLLEPNGMGLKKEREAIVEELFFKEDFDRAKWYEIGEVRREDIIKPYIEAIKSKVDVEAIKKRKPFVVVDTSNGAGSLTLPYLLRELGCKVITVNAQPDGYFPARNPEPNEENLKEFMEIVKALGADFGVAQDGDADRAVFIDENGRFIQGDKTFALVADAVLKEKGGGLLVTTVATSNLLDDIAKKHGAKVMRTKVGDLIVARALYENNGTIGGEENGGVIFPEHVLGRDGAMTVAKVVEIFAKSGKKFSELIDELPKYYQIKTKRHVEGDRHAIVNKVAEMARERGYTVDTTDGAKIIFEDGWVLVRASGTEPIIRIFSEAKSKEKAQEYLNLGIELLEKALS,soluble
2,MGKLIDIPIVVESGQKYKTSQGVTAIKDGIKSSGQDHERLPKPKWLRIVNHTTPAYSQVKEQVQKHRLATVCEEAKCPNISECWSHGTATIMLMGAVCTRACRFCSVDTGNPHGWLDAEEPENTAETVALMNLDYVVLTSVNRDDLPDGGANHYAKTIRAIKKRSPRTKVEALTPDFQGSERDVAVLLDSGVDVFAQNVETVERLTHPVRDNRAGYQQTLNVLAFAKKYRPDVLTKTSLMLGLGETDEEIIQTMDDLRTHHVDILTLGQYLQPTKNHLPIARYVTPETFSELRQIGLKKGFFEVASGPLVRSSYRADRVFKRDNLGLDV,not soluble
3,MGKLKWFSGGKERSNQAENIITDLLDDLKTDLDNESLKKVLENYLEELKQKSASVPLILSRMNLDISKAIRNDGVTLSDYQSKKLKELTSISNIRYGY,soluble
4,MGKLNRRDVIKGLGMAAASLAAAQRGLQARAAPSRIVWSPYVVFLNANAKAFIVDTRTDQVVASLDTARGATLGSMTPDAKKVYVSGAGEGETRVVILDLENLRVAKVLETGNRPKHGLVSPDGRRVGVDHWALSGGKLRLTFIRTEDDTIEKVLDIPVTNQPKGVTSMHNAWSWDSRYFFSVDRVDDRLVVVDTADWSVRTFSAPSVPHYPVVSPDGKELWLVHEGNDRVRPGIAVYDLTRPDLPIVAQVEMPLIGEDAVEAHHGNFTQDGRYFMALNRGPGNNLRGREVAFFSPRTKRLVHRLTCASTGVGHAYNSPDGRRVIATNYGNNVITVIDLLGLRTLKDLVIGKGRMGHVVFTPDGRFAYLSNADGNLYKLDMRSLTVVKVIETGQTNGGGQVLNVWTNVFEELPRG,soluble
5,MGKREKKPNRRRHKGEYSNDAEDFYDQHPPAVASVDEEDEENSDEEEEENDGNESSDLPSKFLLYQQSVQSPKGDISYLQKFFLIFYIDCWNSAEWLKTDTRRTAIGLDFDLEALEWCMDNNISKLGSDVYSRMSLFHGNVLTPLEAKQVKSKSHELIQNISLDDGDDNEDLADPSVVESLEKDGPDSLPKRDIVCAFNFSCCCLHKRSELVSYFKNARDALSKKGGIFVMDLYGGASAEGQLKLQRKFPNFTYTWEQAEFDILSRKTRISLHYHLQKQNRKIRHAFSYSWRLWSLPEIKDCMEEAGFSSVHFWLREMPDASEMRRTDGFGAGRDIKYEQVKSFQQCDSWNAYIVAVSL,not soluble
6,MGKTLVVGAGGVSHAAVHKMAMNSDIFTEITLASRTKAKCDAIAASVKERTGVTIQTAALDAMDVAATVALIKETGAEILVNLALPYQDLKLMDACLEAGCHYLDTANYEPEDVAKFEYHWQWAYQDKFKEAGLTAILGSGFDPGVTSVFATWLKKHKLATIRQIDVLDA,not soluble
7,MGLKVLLYDPDGEIAHFLEDIFEVTGHTLYPAGSEEEVFEYLKNEPEFFFLPFSLKEAWVNSLKERATIPIFFLFSEEEEERAKGLGIPEVNLVRVPFNPLELFERLGLLHKMKPKDFQEIGLFNTLVKSHLEEKGVKVKIKGSGGECLVNTYPVSLSCRLEELKELLKKRLRTGRR,not soluble
8,MGLTAMGLTTMGLTTVGLATMGATTKISQQHFFKFSRSDPIVLLQYSYSTTTVPRPYPTNNSKPISLQKTKTQFFLNYSNPTVLLQYLYSTTTVPRPYPTTNPKLISLQQPKTPFLSPRIRLVLREHERCRGALSDVWVAGAARGAVRCAKLYNKTRHVIRKISANKRKLFPLFYCYTYIHTYKNQVSPEKNANQKGKRMFPRFMVGVALIFELNNYDIETSCSHSSSSFSARLSSADYEVYWARALQILHVGGVEIDEFGGG,not soluble
9,MGLYEKIVNKEEKISVIGLGYVGMPLAIAFAKYAQVIGFDVDKKKIEIYKSGIDPTKEIGNEAIKNTTVEFTSDETKLKEAKFHIVAVPTPINIDKTPDLTPVESASVIVGRNMARGSYVVYESTVYPGVTEDICIPILERESGLKCGVDFKVGYSPERINPGDKKHTLETIKKIVSAIDDESLDEIAKIYSLVIKAGVHKTSSIKVAEAAKVVENSQRDINIAFMNELAMVFDRMGIDTKEVIDAMNTKWNALGFYPGLVGGHCIGVDPYYFIYQAEKLGYHSQIILSGRKINDGMGEFIANTIIKKLIHVNKVVKKSKVVIFGITYKENCPDTRNSKVVDIIKGLNEYGIEPIVVDPQANREDTKQEYGIELMDIDDVKDADCLVFAVAHDEFKNMAWEQIEKFFKNIDNSEKVIIDVKGIFDKNKIEKLGYCYWRL,soluble
10,MGNALVKKEPPPPVVLVPPLFDYPPLSARTRMLESSYNLLFGKLALRCLFEDYFEEANRFTGKFLLKPTDDPHVDLVASVSGAVDGRVEGDFVGNAEFRWQSDVDDPHTFVDLSVSTSNPVLLMRSSAYYPKYGIGAFAVYPLISKITGKSSEEYRIMGLRYGSTNLSVGATVTPFSANNELPKHAWLVSKMGSLTVGVQYEPLHGSKDLAKYTDPRNWSCAAGYGVGSQSPLTPSFNIGIELARSSQFIASFYQHVVVQRRVQNPFEENQVVGITNYIDFGFELQSRVDDSKTPPNAPDSLLQVAASWQANKNFLLKGKVGAHSSTLSLAFKSWWKPSFAFNISATTNHRTGNVQCGFGLRVDNLREASYQRADPNFVMLTPNKEHLAEGIVWKMGKRPMYQADVDAENFSELPKELRPSQKIL,soluble
11,MGNGLAKCLIDGDTETFWHAKWQGGSDPLPYDIVIDMKQNIQIAQVELLPRGRGSNNPIKVVEFAASEDNVNWTPIGRFGFTNQDAALEYYVKSIKARYIRLTIPDDGGNSTVAAIRELDVKGTIINLEHHHHHH,not soluble
12,MGNPTGFINVGRALPTERKAGERLSDWLEVYEEIPLKAVEKQASRCMDCGVPFCQSAKSEFAPAVAGCPVNNVIPEWNDLIYRGRWKDAIELLHKTNNFPEFTGRVCPAPCEGACVLGINADPVAIKLHEKEIIDHAFKEGWVVAQPPSARTGKNVAVIGSGPAGLAAAAQLNKAGHMVTVYERADRIGGLLMYGIPNMKLQKELVQRRVDILAEEGIVFVTNTEVGKDVSVEKLESDFDAIVLCIGATVPRDLPVEGRELNGVHFAMDFLKANTKSLLDSEHKDGQYINAQGKNVVVIGGGDTGTDCIGTSLRHQCTNALQLEIMPRPPEKREENNNPWPQWPKRLLVDYGQKEAIEIQGQDPRQYLVMTKKIESDVQGNVKAVHTVDITWERNDKGQMFPQEVAGSEKAIPADIVLIAMGFMGPEGGLVEQFGLEQDNRSNIAAEYDKFATSKQGVFAAGDGRRGQSLIVWAIDEGRRCAREVDSYLMGKSYLPLEHHHHHH,not soluble
13,MGNQSARQLSTHRKHVVHTWNTINSHDPQLLSDAISEAWLKSAELTPTWVWALVDLPETMHATYKENAQFLNIINQVRDFLNILIKVHKCDPEMIKTLSFRLGARHRHYMNEGNDNCFWAPFAQQLPIAMSKMYMRVVTEDSKIRRILRIRSRAAEKSEEEEVCESWRQFSCMLIESMKRGYEGCASEKTPLRLSITNSIISMASMRSSRSRSASHFLEPNMSPAIAPMCALLGSTESNSTTTTTQPSSPITPYRRRSMFRAGGALQRNSQDFTALRNRRMSSPNNPSILLNNCDIQLLKLTSQLSPLEDQVKQNRVPGRAHQQRRSITLLNFDHHHRARSPTT,not soluble
14,MGNQSTSSKGSDTKKEQITVKHQLDKNGTKVPKNPKKVVVFDFGSLDTLDKLGLDDIVAGLPKQVLPKYLSKFKDDKYADVGSLKEPDFDKVAELDPDLIIISARQSESYKEFSKIAPTIYLGVDTAKYMESFKSDAETIGKIFDKEDKVKDELANIDHSIADVKKTAEKLNKNGLVIMANDGKISAFGPKSRYGLIHDVFGVAPADQNIKASTHGQSVSYEYISKTNPDYLFVIDRGTAIGETSSTKQVVENDYVKNVNAVKNGHVIYLDSATWYLSGGGLESMTQMIKEVKDGLEKLEHHHHHH,soluble
15,MGNWAEITDEISKIYQDNQYKIRQINDVDAVSDKRREALQALFEHTGRNVIVYYSAWLENGRRFSGQSTDFSVNDTDKNSFMTALHKLDQSKGLDLILHTPGGDVAATESLVDYIHALFGQDFRVIVPQLAMSAGTMIALSSKEIVMGKHSSLGPIDPQFNGLPAHGLLEEFEQAKKEVSENPQTAHIWQVILNKYNPTMLGEAKKAIQWSNSMVKQWLEKGMFLDEPDKEEKATRAIKELADHSVTLAHNRHISVSKALELGLNIKELESDPKLQDLVLTLHHLSVIAAQRGPLIKFVVNHDNRGTFLQGHEN,soluble
16,MGPVPEFSVIIPARNEAAYLPGTLRALERQTLAPAEVIVVDNASRDQTAQIARSWGAQVLSCPEGGVARARQLGLDTARSSWVATTDADSLPAPGWLAAYAQAALLAGGYPEVEAYEDVILGQNLARLGEIGYVPRALVETSARRLDRGVGPFLIQHLRNLTGHTRGLEHHHHHH,not soluble
17,MGPYNYGWHDSDEAGKKARRGLDEDVVRYISAQKNEPEWMLEQRLKALNTFEKKPMPTWGPDLSYINFDDFKYYVRSTEKQATTWDDLPEDIKNTYDKLGIPEAEKQRLVAGVAAQYESEVVYHQIREDLETQGVIFLDTDTALKEHPELFQEYFGTVVPAGDNKFSALNSAVWSGGSFVYVPKGVHVEIPLQAYFRINTENMGQFERTLIIVDEGAYVHYVEGCTAPIYQSDSLHSAVVEIIVKKNARCRYTTIQNWSNNVLNLVTQRSKVEEGGTMEWVDGNIGSKVTMKYPAVWMVGPHAKGEVLSAAFAGEGQIQDTGAKMQHMAPYTSSNIVSKSVARSGGRAAYRGLVRVAANAHHSVSNVECDALLVDNISRSDTYPYNDIRNDHVSLGHEATVSQVSEEQLFYLQSRGIAEDEAMAMIVRGFVEPIAKELPMEYALELNRLIELQMEGSVG,not soluble
18,MGQDQTKKQIEKGLQLYQSNQTEKALQVWTKVLEKSSDLMGRFRVLGCLVTAHSEMGRYKEMLKFAVVQIDTARELEDADFLLESYLNLARSNEKLCEFHKTISYCKTCLGLPGTRAGAQLGGQVSLSMGNAFLGLSVFQKALESFEKALRYAHNNDDAMLECRVCCSLGSFYAQVKDYEKALFFPCKAAELVNNYGKGWSLKYRAMSQYHMAVAYRLLGRLGSAMECCEESMKIALQHGDRPLQALCLLCFADIHRSRGDLELSQLKLHCLSESIYRSKGLQRELRAHVVRFHECVEETELYCGLCGESIGEKNSRLQALPCSHIFHLRCLQNNGTRSCPNCRRSSMKPGFV,soluble
19,MGQSTSKVPPSSPPNEPKFVQNTPISSPGFGRAQTMLDVSQLAAAAATLDAPTLQRSSSDTALNTSMTTTTVTQTACQKSYQQALEWGRNEQFLKLAHTFHTNNY,not soluble
20,MGRKKGLPEFEESAPDGFDPENPYKDPVAMVEMREHIVREKWIQIEKAKILREKVKWCYRVEGVNHYQKCRHLVQQYLDSTRGVGWGKDHRPISLHGPKPEAVEAE,not soluble
